From US20260109776A1 (Amgen, published 2026)

T1: human TNFR2 (human, UniProt P20333 23-461)
T1 construct: whole, on cells
T1 sequence (looked up): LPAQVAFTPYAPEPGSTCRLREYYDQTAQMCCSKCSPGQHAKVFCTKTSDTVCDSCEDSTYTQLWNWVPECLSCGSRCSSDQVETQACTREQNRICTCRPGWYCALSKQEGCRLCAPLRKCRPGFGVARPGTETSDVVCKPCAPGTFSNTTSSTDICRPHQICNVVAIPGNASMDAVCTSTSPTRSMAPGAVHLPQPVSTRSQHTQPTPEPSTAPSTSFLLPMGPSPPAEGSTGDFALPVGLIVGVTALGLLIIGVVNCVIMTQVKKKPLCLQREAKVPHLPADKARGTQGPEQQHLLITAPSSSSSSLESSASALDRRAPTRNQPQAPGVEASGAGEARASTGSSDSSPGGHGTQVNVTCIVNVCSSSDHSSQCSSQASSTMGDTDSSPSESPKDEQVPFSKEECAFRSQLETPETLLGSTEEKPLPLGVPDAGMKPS

T2: human TNFR1 (human, UniProt P19438 30-455)
T2 construct: whole, on cells
T2 sequence (looked up): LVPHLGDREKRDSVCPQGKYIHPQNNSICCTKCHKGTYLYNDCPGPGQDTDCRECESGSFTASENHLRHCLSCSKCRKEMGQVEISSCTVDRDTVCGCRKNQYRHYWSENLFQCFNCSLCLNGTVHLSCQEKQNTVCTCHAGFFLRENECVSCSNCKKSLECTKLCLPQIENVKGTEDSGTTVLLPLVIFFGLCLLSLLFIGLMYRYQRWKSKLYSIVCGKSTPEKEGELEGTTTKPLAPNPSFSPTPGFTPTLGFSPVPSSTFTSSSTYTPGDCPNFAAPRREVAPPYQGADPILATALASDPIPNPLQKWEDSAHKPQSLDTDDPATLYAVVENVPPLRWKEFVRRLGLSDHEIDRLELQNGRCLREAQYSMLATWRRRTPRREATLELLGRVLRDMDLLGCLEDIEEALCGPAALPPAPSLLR

T3: mouse CD40 on cells (mouse, UniProt P27512 20-289)
T3 construct: whole, on cells; also called mouse CD40 on HEK293 cells; CD40 on mouse B cells
T3 sequence (looked up): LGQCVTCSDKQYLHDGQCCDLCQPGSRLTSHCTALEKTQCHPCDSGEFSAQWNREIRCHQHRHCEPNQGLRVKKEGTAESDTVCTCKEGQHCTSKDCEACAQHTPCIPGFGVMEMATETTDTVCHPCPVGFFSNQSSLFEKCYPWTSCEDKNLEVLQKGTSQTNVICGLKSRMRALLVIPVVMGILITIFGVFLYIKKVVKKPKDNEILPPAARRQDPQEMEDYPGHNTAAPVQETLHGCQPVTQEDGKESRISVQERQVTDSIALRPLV

T4: human TNFR14 (human, UniProt Q92956 39-283)
T4 construct: whole, on cells
T4 sequence (looked up): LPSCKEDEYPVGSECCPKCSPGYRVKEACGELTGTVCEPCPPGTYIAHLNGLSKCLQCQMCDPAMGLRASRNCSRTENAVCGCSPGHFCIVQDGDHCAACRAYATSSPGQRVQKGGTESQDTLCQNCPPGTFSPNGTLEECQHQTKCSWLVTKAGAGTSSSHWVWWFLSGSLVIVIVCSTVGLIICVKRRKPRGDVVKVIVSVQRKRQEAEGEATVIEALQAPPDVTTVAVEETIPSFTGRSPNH

T5: cynomolgus monkey CD40 on cells (cynomolgus monkey, UniProt P25942 21-277 (human entry))
T5 construct: also called cyno CD40 on HEK293 cells; CD40 on cynomolgus monkey B cells
T5 chain: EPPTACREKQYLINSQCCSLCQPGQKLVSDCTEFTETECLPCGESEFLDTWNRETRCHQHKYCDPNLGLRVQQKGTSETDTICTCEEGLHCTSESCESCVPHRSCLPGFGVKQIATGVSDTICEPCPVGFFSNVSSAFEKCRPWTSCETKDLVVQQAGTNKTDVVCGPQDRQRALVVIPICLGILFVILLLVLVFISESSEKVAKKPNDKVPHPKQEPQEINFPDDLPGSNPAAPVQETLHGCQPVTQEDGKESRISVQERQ

T6: cynomolgus monkey CD40 (cynomolgus monkey, UniProt P25942 21-193 (human entry), limits assumed)
T6 chain: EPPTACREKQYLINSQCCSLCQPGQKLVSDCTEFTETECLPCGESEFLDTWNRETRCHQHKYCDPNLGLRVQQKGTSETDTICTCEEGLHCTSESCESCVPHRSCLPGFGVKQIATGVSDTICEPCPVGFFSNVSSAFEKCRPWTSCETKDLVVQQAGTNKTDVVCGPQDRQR


Key:
[1] = target: T1, human TNFR2; test: flow cytometry, HEK293 transfectants vs control cells
Method: (§1) The binding affinity of anti-human CD40 antibodies to human and cynomolgus monkey CD40 was measured by Octet assay (Table 3), quantifying association rate (Kon), disassociation rate (Kdis), and equilibrium binding constant (KD). Cross-reactivity of anti-CD40 antibodies to related TNF receptor superfamily (TNFRSF) members was evaluated by expressing human TNFR1, TNFR2, TNFR10, or TNFR14 on HEK293 cells by transient transfection of expression vectors encoding these genes. Binding of indicated anti-human CD40 antibody to these transfected cells was determined by flow cytometry. […] Cross-reactivity of anti-CD40 antibodies to cynomolgus monkey and mouse CD40 was evaluated by expressing cynomolgus monkey or mouse CD40 on HEK293 cells by transient transfection of expression vectors encoding these genes. Binding of indicated anti-human CD40 antibody to cells overexpressing cynomolgus monkey and mouse CD40 was determined by flow cytometry.

[2] = target: T2, human TNFR1; test: as above
Method: as §1

[3] = target: T3, mouse CD40 on cells; test: as above
Method: as §1

[4] = target: T7, human TNFR10 (human); test: as above
T7 construct: whole, on cells; Name as printed is ambiguous (TNFRSF10A-D)
Method: as §1

[5] = target: T4, human TNFR14; test: as above
Method: as §1

[6] = target: T5, cynomolgus monkey CD40 on cells; test: as above
Method: as §1

[7] = target: T2, human TNFR1; test: flow cytometry, HEK293 transfectants
Method: as §1

[8] = target: human CD40 on cells (human, UniProt P25942 21-277); test: cell-based or functional assay
[9] = target: T6, cynomolgus monkey CD40; test: Octet
Method: as §1

[10] = target: human CD40 (human, UniProt P25942 21-193, limits assumed); test: Octet
Method: as §1

Sequence of human CD40 (P25942 21-193 limits assumed): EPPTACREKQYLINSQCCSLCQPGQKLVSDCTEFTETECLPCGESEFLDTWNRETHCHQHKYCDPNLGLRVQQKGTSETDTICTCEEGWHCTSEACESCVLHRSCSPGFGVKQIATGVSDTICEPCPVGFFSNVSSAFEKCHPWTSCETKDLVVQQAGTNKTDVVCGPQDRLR

| fold over control (gMFI) [1] | fold over control (gMFI) [2] | fold over control (gMFI) [3] | fold over control (gMFI) [4] | fold over control (gMFI) [5] | fold over control (gMFI) [6] | binding result [7] | human B cell proliferation, no crosslinking, EC50 [8] | human B cell proliferation, no crosslinking, Max Fold Change [8] | human B cell proliferation, with protein G crosslinking, EC50 [8] | human B cell proliferation, with protein G crosslinking, Max Fold Change [8] | Kd [9] | koff [9] | kon [9] | Kd [10] | koff [10] | kon [10] | Binder |
| --- | --- | --- | --- | --- | --- | --- | --- | --- | --- | --- | --- | --- | --- | --- | --- | --- | --- |
| 0.88 fold | 0.98 fold | 0.8 fold | 0.89 fold | 0.84 fold | 71 fold | no binding | > 16.7 nM | 1.35 fold | 0.235 nM | 18.2 fold | 0.39 nM | 0.000244 s⁻¹ | 612000 M⁻¹ s⁻¹ | 0.41 nM | 0.000164 s⁻¹ | 398000 M⁻¹ s⁻¹ | 29H10 (antibody, V domains shown, also called 4877-1) VH: QVQLVQSGAEVTKPGASVKVSCKASGYTFAGYYMHWVRQAPGQGLEWMGWINPHSGGTNYAQKFQDRVTMTRDTSINTAYMELSRLRSDDTAVYYCARERISMVRGVGHNWFAPWGQGTLVTVSS VL: DIQMTQSPSSLSASVGDRVTITCRASQDISNNLAWFQQKPGKPPKSLMYAASSLHSGVPSTFSGSGSGTDFTFTISSLQPEDFATYYCQQYNSYPLTFGGGTKVEIRR |
| 0.81 fold | 1 fold | 0.9 fold | 0.77 fold | 0.8 fold | 74 fold | no binding | > 16.7 nM | 1.21 fold | 0.237 nM | 18.2 fold | 1.04 nM | 0.000577 s⁻¹ | 556000 M⁻¹ s⁻¹ | 1.34 nM | 0.00068 s⁻¹ | 509000 M⁻¹ s⁻¹ | 33H6 (antibody, IgG4, V domains shown, also called 4883-1) VH: QVQLVQSGAEVKKPGASVKVSCKASGYTFPGYYMYWLRQAPGQGLEWMGWINPDSGDTNYAQKFQGRVTMTRDTSISTAFMELSRLRSDDTAVYYCAREKPRYFDSFYYYLMDVWGQGTTVTVSS VL: DIQMTQSPSSLSASVGDRVTITCRAGQNISRHLNWYQQNPGKAPKVLIHPASSLPSGVPSRFSGSGSGTDFSLTISSLQPEDFGTYFCQQSYSTPPTFGGGTKVELKR |
| 0.87 fold | 0.99 fold | 0.9 fold | 0.88 fold | 0.87 fold | 92 fold | no binding | > 16.7 nM | 1.19 fold | 0.504 nM | 27.1 fold | 0.73 nM | 0.000387 s⁻¹ | 531000 M⁻¹ s⁻¹ | 1.1 nM | 0.000672 s⁻¹ | 612000 M⁻¹ s⁻¹ | 37A6 (antibody, IgG4, V domains shown, also called 4865-1) VH: QVQLVESGGGLVKPGGSLRLSCAASEFTFSDYYMSWIRQAPGKGLEWVSYISRSGDTIYYADSVKGRFTISRDNAKNSLYLQMNGLRAEDTAVYYCARDLAAGATGGLDCWGQGTLVTVSS VL: SYELTQPPSVSVSPGQTASITCSGERLGNKYICWYQQKPGQSPVLVIYQDFKRPSGIPERFSGSNSGITATLTISGTQAMDEADYYCQAWDSRTVVFGGGTKLTVLG |
| 0.92 fold | 0.99 fold | 0.9 fold | 0.86 fold | 0.88 fold | 82 fold | no binding | > 16.7 nM | 1.83 fold | 0.558 nM | 16.9 fold | 4.02 nM | 0.00021 s⁻¹ | 52200 M⁻¹ s⁻¹ | 6.87 nM | 0.000443 s⁻¹ | 64500 M⁻¹ s⁻¹ | 36F3 (antibody, IgG4, V domains shown, also called 4891-1) VH: QVQLQQSGPGLVKPSQTLSLTCAISGDSVSSSRTAWNWIRQSPSRGLEWLGRTYYRSKWYHDYSVSVKSRITIDPDTSKNQFSLQLNSVTPEDTAVYYCARGAAPFDYWGQGTLVTVSS VL: EIVLTQSPGTLSLSPGERATLSCRASQSVSSNYLAWYQQKPGQAPRALIYAASNRAAGISDRFSGSGSGTDFTLTISRLEPEDFAVYFCQQYGSSPLTFGGGTKVEIKR |
| 0.85 fold | 1 fold | 0.8 fold | 0.73 fold | 0.74 fold | 76 fold | no binding | > 16.7 nM | 1.33 fold | 0.371 nM | 24.2 fold | 0.62 nM | 0.000314 s⁻¹ | 506000 M⁻¹ s⁻¹ | 0.55 nM | 0.00031 s⁻¹ | 556000 M⁻¹ s⁻¹ | 35F11 (antibody, IgG4, V domains shown, also called 4868-1) VH: QVQLVESGGGVVQPGRSLRLSCAASGFTLSSYGMHWVRQAPGKGLEWVAVIWYDGSNKYYADSVKGRVTISRDNSKNTLYLQMNSLRAEDTAVYYCTRDGRNYVYFDNWGQGTLVTVSS VL: QSALTQPRSVSGSPGQSVTISCTGTSSDVGGYIFVSWYQQHPGKAPKLMIYDVSKRPSGVPDRFSGSKSVNTASLTISGLQAEDETDYYCCSYAGNYTYVFGTGTKVTVLG |
